Results from US20260216326A1 (PROMETHEUS BIOSCIENCES, published 2026).

T1: human TL1A (human, UniProt O95150 72-251, limits assumed)
T1 construct: also called tumor necrosis factor-like cytokine 1A; TNFSF15
T1 sequence (looked up): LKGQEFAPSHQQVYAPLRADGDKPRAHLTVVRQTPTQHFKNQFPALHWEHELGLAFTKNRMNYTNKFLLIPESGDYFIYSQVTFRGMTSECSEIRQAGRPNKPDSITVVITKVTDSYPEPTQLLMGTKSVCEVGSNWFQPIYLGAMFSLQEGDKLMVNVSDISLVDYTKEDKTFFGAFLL

T2: human TL1A (Fitzgerald #30R-AT070) (human, UniProt O95150 72-251, limits assumed)
T2 construct: Coated on the ELISA plate at 1 ug/mL; also called TNFSF15
T2 sequence (looked up): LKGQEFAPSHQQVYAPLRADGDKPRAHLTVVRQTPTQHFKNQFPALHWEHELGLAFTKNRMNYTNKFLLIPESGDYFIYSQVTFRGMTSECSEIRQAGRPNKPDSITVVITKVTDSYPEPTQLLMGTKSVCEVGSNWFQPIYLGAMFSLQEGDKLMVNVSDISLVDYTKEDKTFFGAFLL


Legend:
human TL1A = molecular target: T1, human TL1A; experiment: ELISA titration on plate-coated human TL1A, unpurified culture supernatant
[1] = molecular target: T2, human TL1A (Fitzgerald #30R-AT070); experiment: ELISA titration, coated human TL1A, culture supernatant

Kd (human TL1A) | Kd [1] | Binder
0.051 nM |  | A221 (antibody, IgG1, V domains shown) VH: QVQLVQSGAEVKKPGASVKVSCKASGFDIQDTYMHWVKQRPGQGLEWMGRIDPASGHTKYDPKFQVRATITRDTSTSTAYLELSSLRSEDTAVYYCARSGGLPDVWGQGTTVTVSS VL: EIVLTQSPGTLSLSPGERATLSCRASSSVSYMYWYQQKPGQAPRPLIYATSNLASGIPDRFSGSGSGTDFTLTISRLEPEDFAVYYCQQWEGNPRTFGGGTKLEIK
 | 0.082 nM | A47 (antibody, human IgG1, V domains shown, human IgG1/kappa (pFuse vectors), culture supernatant) VH: QVQLVQSGAEVKKPGASVKVSCKASGFDIQDTYMHWVKQRPGQGLEWIGRIDPASGHTKYDPKFQVRVTMTRDTSTSTAYLELSSLRSEDTAVYYCARSGGLPDVWGQGTTVTVSS VL: EIVLTQSPGTLSASPGERATMSCRASSSVSYMYWYQQKPGQAPRPWIYATSNLASGVPDRFSGSGSGTDYTLTISRVEPEDFAVYYCQQWSGNPRTFGGGTKLEIK
 | 0.051 nM | A43 (antibody, human IgG1, V domains shown, human IgG1/kappa (pFuse vectors), culture supernatant) VH: QVQLVQSGAEVKKPGASVKVSCKASGFDIQDTYMHWVKQRPGQGLEWIGRIDPASGHTKYDPKFQVRATITRDTSTSTAYLELSSLRSEDTAVYYCARSGGLPDVWGQGTTVTVSS VL: EIVLTQSPGTLSASPGERATMSCRASSSVSYMYWYQQKPGQAPRPWIYATSNLASGVPDRFSGSGSGTDYTLTISRVEPEDFAVYYCQQWSGNPRTFGGGTKLEIK
 | 0.116 nM | A56 (antibody, human IgG1, V domains shown, human IgG1/kappa (pFuse vectors), culture supernatant) VH: QVQLVQSGAEVKKPGASVKVSCKASGFDIQDTYMHWVKQRPGQGLEWIGRIDPASGHTKYDPKFQVRATITTDTSTSTAYLELSSLRSEDTAVYYCARSGGLPDVWGQGTTVTVSS VL: EIVLTQSPGTLSASPGERATMSCRASSSVSYMYWYQQKPGQAPRPWIYATSNLASGIPDRFSGSGSGTDYTLTISRVEPEDFAVYYCQQWSGNPRTFGGGTKLEIK
 | 0.126 nM | A53 (antibody, human IgG1, V domains shown, human IgG1/kappa (pFuse vectors), culture supernatant) VH: QVQLVQSGAEVKKPGASVKVSCKASGFDIQDTYMHWVKQRPGQGLEWIGRIDPASGHTKYDPKFQVRVTMTTDTSTSTAYLELSSLRSEDTAVYYCARSGGLPDVWGQGTTVTVSS VL: EIVLTQSPGTLSASPGERATMSCRASSSVSYMYWYQQKPGQAPRPWIYATSNLASGVPDRFSGSGSGTDYTLTISRVEPEDFAVYYCQQWSGNPRTFGGGTKLEIK
 | < 0.05 nM | A51 (antibody, human IgG1, V domains shown, human IgG1/kappa (pFuse vectors), culture supernatant) VH: QVQLVQSGAEVKKPGASVKVSCKASGFDIQDTYMHWVKQRPGQGLEWIGRIDPASGHTKYDPKFQVRATITTDTSTSTAYLELSSLRSEDTAVYYCARSGGLPDVWGQGTTVTVSS VL: EIVLTQSPGTLSASPGERATMSCRASSSVSYMYWYQQKPGQAPRPWIYATSNLASGVPDRFSGSGSGTDYTLTISRLEPEDFAVYYCQQWSGNPRTFGGGTKLEIK
 | 0.019 nM | A50 (antibody, human IgG1, V domains shown, human IgG1/kappa (pFuse vectors), culture supernatant) VH: QVQLVQSGAEVKKPGASVKVSCKASGFDIQDTYMHWVKQRPGQGLEWIGRIDPASGHTKYDPKFQVRATITTDTSTSTAYLELSSLRSEDTAVYYCARSGGLPDVWGQGTTVTVSS VL: EIVLTQSPGTLSASPGERATMSCRASSSVSYMYWYQQKPGQAPRPWIYATSNLASGVPDRFSGSGSGTDFTLTISRVEPEDFAVYYCQQWSGNPRTFGGGTKLEIK
 | 0.091 nM | A55 (antibody, human IgG1, V domains shown, human IgG1/kappa (pFuse vectors), culture supernatant) VH: EVQLVQSGAEVKKPGASVKVSCKASGFDIQDTYMHWVKQRPGQGLEWIGRIDPASGHTKYDPKFQVRATITTDTSTSTAYLELSSLRSEDTAVYYCARSGGLPDVWGQGTTVTVSS VL: EIVLTQSPGTLSASPGERATMSCRASSSVSYMYWYQQKPGQAPRPWIYATSNLASGVPDRFSGSGSGTDYTLTISRVEPEDFAVYYCQQWSGNPRTFGGGTKLEIK
 | 0.063 nM | A46 (antibody, human IgG1, V domains shown, human IgG1/kappa (pFuse vectors), culture supernatant) VH: QVQLVQSGAEVKKPGASVKVSCKASGFDIQDTYMHWVKQRPGQGLEWIGRIDPASGHTKYDPKFQVRATMTRDTSTSTAYLELSSLRSEDTAVYYCARSGGLPDVWGQGTTVTVSS VL: EIVLTQSPGTLSASPGERATMSCRASSSVSYMYWYQQKPGQAPRPWIYATSNLASGVPDRFSGSGSGTDYTLTISRVEPEDFAVYYCQQWSGNPRTFGGGTKLEIK
 | 0.027 nM | A52 (antibody, human IgG1, V domains shown, human IgG1/kappa (pFuse vectors), culture supernatant) VH: QVQLVQSGAEVKKPGASVKVSCKASGFDIQDTYMHWVKQRPGQGLEWIGRIDPASGHTKYDPKFQVRATITTDTSTSTAYLELSSLRSEDTAVYYCARSGGLPDVWGQGTTVTVSS VL: EIVLTQSPGTLSASPGERATMSCRASSSVSYMYWYQQKPGQAPRPWIYATSNLASGVPDRFSGSGSGTDFTLTISRLEPEDFAVYYCQQWSGNPRTFGGGTKLEIK
 | 0.092 nM | A49 (antibody, human IgG1, V domains shown, human IgG1/kappa (pFuse vectors), culture supernatant) VH: QVQLVQSGAEVKKPGASVKVSCKASGFDIQDTYMHWVKQRPGQGLEWIGRIDPASGHTKYDPKFQVRATITTDTSTSTAYLELSSLRSEDTAVYYCARSGGLPDVWGQGTTVTVSS VL: EIVLTQSPGTLSASPGERATMSCRASSSVSYMYWYQQKPGQAPRLLIYATSNLASGVPDRFSGSGSGTDYTLTISRVEPEDFAVYYCQQWSGNPRTFGGGTKLEIK
 | 0.076 nM | A48 (antibody, human IgG1, V domains shown, human IgG1/kappa (pFuse vectors), culture supernatant) VH: QVQLVQSGAEVKKPGASVKVSCKASGFDIQDTYMHWVKQRPGQGLEWIGRIDPASGHTKYDPKFQVRATITTDTSTSTAYLELSSLRSEDTAVYYCARSGGLPDVWGQGTTVTVSS VL: EIVLTQSPGTLSASPGERATLSCRASSSVSYMYWYQQKPGQAPRPWIYATSNLASGVPDRFSGSGSGTDYTLTISRVEPEDFAVYYCQQWSGNPRTFGGGTKLEIK
 | 0.083 nM | A54 (antibody, human IgG1, V domains shown, human IgG1/kappa (pFuse vectors), culture supernatant) VH: DVQLVQSGAEVKKPGASVKVSCKASGFDIQDTYMHWVKQRPGQGLEWIGRIDPASGHTKYDPKFQVRATITTDTSTSTAYLELSSLRSEDTAVYYCARSGGLPDVWGQGTTVTVSS VL: EIVLTQSPGTLSASPGERATMSCRASSSVSYMYWYQQKPGQAPRPWIYATSNLASGVPDRFSGSGSGTDYTLTISRVEPEDFAVYYCQQWSGNPRTFGGGTKLEIK
 | 0.085 nM | A45 (antibody, human IgG1, V domains shown, human IgG1/kappa (pFuse vectors), culture supernatant) VH: QVQLVQSGAEVKKPGASVKVSCKASGFDIQDTYMHWVKQRPGQGLEWIGRIDPASGHTKYDPKFQVRVTITRDTSTSTAYLELSSLRSEDTAVYYCARSGGLPDVWGQGTTVTVSS VL: EIVLTQSPGTLSASPGERATMSCRASSSVSYMYWYQQKPGQAPRPWIYATSNLASGVPDRFSGSGSGTDYTLTISRVEPEDFAVYYCQQWSGNPRTFGGGTKLEIK
0.075 nM |  | A162 (antibody, IgG1, V domains shown) VH: QVQLVQSGAEVKKPGASVKVSCKASGFDIQDTYMHWVRQRPGQGLEWMGRIDPASGHTKYDPKFQVRVTITTDTSTSTVYMELSSLRSEDTAVYYCARSGGLPDVWGQGTTVTVSS VL: EIVLTQSPGTLSLSPGERATLSCRASSSVSYMYWYQQKPGQAPRLLIYATSNLASGIPDRFSGSGSGTDFTLTISRLEPEDFAVYYCQQWKGNPRTFGGGTKLEIK
0.094 nM |  | A156 (antibody, IgG1, V domains shown) VH: QVQLVQSGAEVKKPGASVKVSCKASGFDIQDTYMHWVRQAPGQGLEWMGRIEPASGHIKYDPKFQVRATMTRDTSTSTVYMELSSLRSEDTAVYYCARSGGLPDWWGQGTTVTVSS VL: EIVLTQSPGTLSLSPGERATLSCRASSSVSYMYWYQQKPGQAPRPWIYATSNLASGIPDRFSGSGSGTDFTLTISRLEPEDFAVYYCQQWEGNPRTFGGGTKLEIK
0.069 nM |  | A159 (antibody, IgG1, V domains shown) VH: QVQLVQSGAEVKKPGASVKVSCKASGFDIQDTYMHWVKQRPGQGLEWMGRIDPASGHTKYDPKFQVRVTITRDTSTSTAYMELSSLRSEDTAVYYCARSGGLPDVWGQGTTVTVSS VL: EIVLTQSPGTLSLSPGERATLSCRASSSVSYMYWYQQKPGQAPRLLIYATSNLASGIPDRFSGSGSGTDFTLTISRLEPEDFAVYYCQQWKGNPRTFGGGTKLEIK
0.072 nM |  | A161 (antibody, IgG1, V domains shown) VH: QVQLVQSGAEVKKPGASVKVSCKASGFDIQDTYMHWVRQRPGQGLEWMGRIDPASGHTKYDPKFQVRVTITTDTSTSTVYLELSSLRSEDTAVYYCARSGGLPDVWGQGTTVTVSS VL: EIVLTQSPGTLSLSPGERATLSCRASSSVSYMYWYQQKPGQAPRLLIYATSNLASGIPDRFSGSGSGTDFTLTISRLEPEDFAVYYCQQWKGNPRTFGGGTKLEIK
0.069 nM |  | A157 (antibody, IgG1, V domains shown) VH: QVQLVQSGAEVKKPGASVKVSCKASGFDIQDTYMHWVKQRPGQGLEWMGRIDPASGHTKYDPKFQVRVTITRDTSTSTVYLELSSLRSEDTAVYYCARSGGLPDVWGQGTTVTVSS VL: EIVLTQSPGTLSLSPGERATLSCRASSSVSYMYWYQQKPGQAPRLLIYATSNLASGIPDRFSGSGSGTDFTLTISRLEPEDFAVYYCQQWKGNPRTFGGGTKLEIK
0.094 nM |  | A160 (antibody, IgG1, V domains shown) VH: QVQLVQSGAEVKKPGASVKVSCKASGFDIQDTYMHWVKQRPGQGLEWMGRIDPASGHTKYDPKFQVRVTMTRDTSTSTAYLELSSLRSEDTAVYYCARSGGLPDVWGQGTTVTVSS VL: EIVLTQSPGTLSLSPGERATLSCRASSSVSYMYWYQQKPGQAPRLLIYATSNLASGIPDRFSGSGSGTDFTLTISRLEPEDFAVYYCQQWKGNPRTFGGGTKLEIK
0.066 nM |  | A158 (antibody, IgG1, V domains shown) VH: QVQLVQSGAEVKKPGASVKVSCKASGFDIQDTYMHWVKQRPGQGLEWMGRIDPASGHTKYDPKFQVRVTITRDTSTSTVYMELSSLRSEDTAVYYCARSGGLPDVWGQGTTVTVSS VL: EIVLTQSPGTLSLSPGERATLSCRASSSVSYMYWYQQKPGQAPRLLIYATSNLASGIPDRFSGSGSGTDFTLTISRLEPEDFAVYYCQQWKGNPRTFGGGTKLEIK
